The values that follow come from paper PMC11507940 (bioRxiv, 2024).

As usually defined, the stoichiometry N is a count of units in the complex or per binding partner.

Assay [1] has as its target Human recombinant fibroblast activation protein alpha (human) (UniProt Q12884). The assay can be described thus: cross-linking + other: mass photometry.
The target in assay [2] is Biotinylated dipeptidyl peptidase IV (Homo sapiens, UniProt P27487, biotin). The assay can be described thus: BLI. On the technique in general: In BLI a coated tip is dipped into the sample, and binding shifts an interference pattern.
Chain of Biotinylated dipeptidyl peptidase IV (P27487 39-766): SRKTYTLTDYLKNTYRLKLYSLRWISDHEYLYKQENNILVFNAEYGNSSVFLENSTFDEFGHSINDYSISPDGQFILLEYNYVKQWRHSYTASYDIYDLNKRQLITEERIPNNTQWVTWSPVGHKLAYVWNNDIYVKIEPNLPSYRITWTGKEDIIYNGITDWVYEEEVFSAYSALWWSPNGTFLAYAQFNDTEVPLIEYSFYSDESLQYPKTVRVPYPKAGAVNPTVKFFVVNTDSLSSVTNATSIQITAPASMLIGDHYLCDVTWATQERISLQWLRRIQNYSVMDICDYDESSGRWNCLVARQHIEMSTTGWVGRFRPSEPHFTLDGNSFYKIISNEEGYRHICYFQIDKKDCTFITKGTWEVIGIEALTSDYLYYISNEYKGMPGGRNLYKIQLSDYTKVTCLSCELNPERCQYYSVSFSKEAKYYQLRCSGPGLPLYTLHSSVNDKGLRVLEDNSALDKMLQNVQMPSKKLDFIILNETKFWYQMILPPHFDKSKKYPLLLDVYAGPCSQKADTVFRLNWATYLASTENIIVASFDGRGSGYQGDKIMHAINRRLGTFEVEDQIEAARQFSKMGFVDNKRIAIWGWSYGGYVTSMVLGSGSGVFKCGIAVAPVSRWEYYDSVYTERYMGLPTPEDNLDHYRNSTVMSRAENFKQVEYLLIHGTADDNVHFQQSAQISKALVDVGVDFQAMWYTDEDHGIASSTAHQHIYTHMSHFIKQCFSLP

Chain of Human recombinant fibroblast activation protein alpha (human) (Q12884 39-757): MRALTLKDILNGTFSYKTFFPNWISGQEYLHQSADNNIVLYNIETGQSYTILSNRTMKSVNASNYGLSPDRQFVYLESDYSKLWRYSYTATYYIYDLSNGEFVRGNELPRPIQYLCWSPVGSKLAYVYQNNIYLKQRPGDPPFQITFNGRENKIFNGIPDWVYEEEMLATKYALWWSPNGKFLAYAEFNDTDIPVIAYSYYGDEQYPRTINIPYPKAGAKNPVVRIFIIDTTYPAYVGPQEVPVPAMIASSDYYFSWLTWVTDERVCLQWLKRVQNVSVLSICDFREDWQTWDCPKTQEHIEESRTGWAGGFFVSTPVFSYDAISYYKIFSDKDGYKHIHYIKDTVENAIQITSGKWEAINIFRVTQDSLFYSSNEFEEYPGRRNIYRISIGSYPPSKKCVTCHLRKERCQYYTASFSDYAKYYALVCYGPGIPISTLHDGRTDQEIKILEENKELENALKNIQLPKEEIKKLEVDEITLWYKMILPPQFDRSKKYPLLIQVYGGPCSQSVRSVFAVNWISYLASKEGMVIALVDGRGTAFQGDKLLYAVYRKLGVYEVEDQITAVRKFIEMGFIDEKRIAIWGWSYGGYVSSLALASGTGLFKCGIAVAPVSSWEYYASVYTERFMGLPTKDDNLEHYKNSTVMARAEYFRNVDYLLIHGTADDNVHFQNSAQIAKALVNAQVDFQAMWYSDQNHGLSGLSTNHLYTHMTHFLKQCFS

B1: SUMO-I3 (single domain antibody I3 fused to an N-terminal 6X His-SUMO-FLAG tag) (VHH)
VHH: EVQLVESGGGLVQPGGSLRLSCAASGFTFSSYAMSWVRQAPGKGLEWVSAINSGGGSTSYADSVKGRFTISRDNAKNTLYLQMNSLKPEDTAVYYCAKARTGWSLAVPSFGSWGQGTQVTVSS
Consider B1, for which, in assay [1], the stoichiometry N was found to be 1.

B2: MBP-I3 (single domain antibody I3 with an N-terminal MBP fusion and a C-terminal 6X His-tag) (VHH)
VHH: EVQLVESGGGLVQPGGSLRLSCAASGFTFSSYAMSWVRQAPGKGLEWVSAINSGGGSTSYADSVKGRFTISRDNAKNTLYLQMNSLKPEDTAVYYCAKARTGWSLAVPSFGSWGQGTQVTVSS
As for B2, the binding result in assay [2] was “no binding (tested: 10 μM)”.
